Patent US20250289871A1 (AstraZeneca / MedImmune, published 2025)
Where a chain is given by its changes, count along the chain named.

B1: RQ43-GL-H-LO1 (TM-YTE) (antibody, V domains shown)
VH: EVQLVESGGGLVQPGRSLRLSCAASGFPFDDYAIHWVRLAPGKGLEWVSSISWDSGSIGYADSVKGRFTISRDNAKNSLYLQMNSLRAEDTALYYCAKGAFPGYSSGWYYGLEVWGQGTTVTVSS
VL: QSVVTQPPSASGSLGQSVTISCTGTSSDVGGYNYVSWYQQHPGKAPKLMIFEVSKRPSGVPDRFSGSKSGNTASLTVSGLQAEDEADYYCSSYAGNKGVFGGGTKLTVL
B2: RQ43 (TM-YTE) (antibody, V domains shown)
VH: B1 VH with V5L, S7T, E113D, T119A
VL: B1 VL
B3: RQ41 (TM-YTE) (antibody, V domains shown)
VH: EVQLVESGGGLIQPGGSLRLSCAASEIIVSRNYMSWVRQAPGKGLEWVSVIYSGGSTFYADSVKGRFTISRDNSKNTLYLQMNSLRAEDTAVYYCARDLDVVGGTDYWGQGTLVTVSS
VL: not shown
B4: RQ40 (TM-YTE) (antibody, V domains shown)
VH: EVQLVESGAEVKKPGSSVKVSCKASGGTFSSYAINWVRQAPGQGLEWMGGIIPIFRTPHYAQKFQGRVTITADESTGTAYMELSSLRSEDTAVYYCASPSCGGDCPQYLKSSKLDWYFDLWGRGTLVTVSS
VL: VIWMTQSPGTLSLSPGERATLSCRASQSVSSTYLAWYQQKPGQAPRLLIYGASSRATGIPDRFSGSGSGTDFTLTISRLEPEDFAVYYCQHYGSSPLTFGQGTRLEIK
B5: RQ33 (TM-YTE) (antibody, V domains shown)
VH: QVQLQESGPGLVKPSETLSLTCTVFGGSITSSNHYWVWIRQPPGKGLEWIGSMYYSGSTAYNPSLTNRVTISVDTSKNQFSLKLSSVTAADTAVYYCARQIGPKRPSQVADWFDPWGQGTLVTVSS
VL: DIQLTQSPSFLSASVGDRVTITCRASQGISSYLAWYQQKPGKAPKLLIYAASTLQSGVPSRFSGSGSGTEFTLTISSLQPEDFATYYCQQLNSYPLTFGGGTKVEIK

Legend:
[1] = biological target: SARS-CoV-2 D614G spike protein (authentic virus) (SARS-CoV-2, UniProt P0DTC2 14-1273); experiment: cell-based or functional assay
[2] = biological target: SARS-CoV-2 Alpha spike protein (authentic virus) (SARS-CoV-2, UniProt P0DTC2 14-1273); experiment: cell-based or functional assay
[3] = biological target: SARS-CoV-2 BA.1 spike protein (authentic virus) (SARS-CoV-2, UniProt P0DTC2 14-1273); experiment: cell-based or functional assay
[4] = biological target: SARS-CoV-2 BA.1.1 spike protein (authentic virus) (SARS-CoV-2, UniProt P0DTC2 14-1273); experiment: cell-based or functional assay
[5] = biological target: SARS-CoV-2 BA.2 spike protein (authentic virus) (SARS-CoV-2, UniProt P0DTC2 14-1273); experiment: cell-based or functional assay
[6] = biological target: T1, SARS-CoV-2 BA.2.12.1 spike protein (authentic virus) (SARS-CoV-2, UniProt P0DTC2 14-1273); experiment: cell-based or functional assay
[7] = biological target: SARS-CoV-2 BA.5 spike protein (authentic virus) (SARS-CoV-2, UniProt P0DTC2 14-1273); experiment: cell-based or functional assay
[8] = biological target: BA.2.12.1 spike protein (pseudovirus) (SARS-CoV-2); experiment: cell-based or functional assay
[9] = biological target: SARS-CoV-2 spike RBD point mutant K444A (SARS-CoV-2, UniProt P0DTC2 334-526)
[10] = biological target: SARS-CoV-2 spike RBD point mutant F486A (SARS-CoV-2, UniProt P0DTC2 334-526)
[11] = biological target: Omicron (BA.1) spike protein (pseudovirus) (SARS-CoV-2); experiment: cell-based or functional assay
[12] = biological target: BA1.1 spike protein (pseudovirus) (SARS-CoV-2); experiment: cell-based or functional assay
[13] = biological target: BA.2 spike protein (pseudovirus) (SARS-CoV-2); experiment: cell-based or functional assay
[14] = biological target: Delta spike protein (pseudovirus) (SARS-CoV-2); experiment: cell-based or functional assay
[15] = biological target: D614G spike protein (pseudovirus) (SARS-CoV-2); experiment: cell-based or functional assay
[16] = biological target: T1, SARS-CoV-2 BA.2.12.1 spike protein …; experiment: cell-based or functional assay; remark: listed apart in the source

Binder	Authentic Virus Neutralization IC50 [1]	Authentic Virus Neutralization IC50 [2]	Authentic Virus Neutralization IC50 [3]	Authentic Virus Neutralization IC50 [4]	Authentic Virus Neutralization IC50 [5]	Authentic Virus Neutralization IC50 [6]	Authentic Virus Neutralization IC50 [7]	IC50 (read off the curve), pseudovirus with BA.2.12.1 spike [8]	Kd [9]	Kd [10]	EC50, pseudovirus neutralization [11]	EC50, pseudovirus neutralization [12]	EC50, pseudovirus neutralization [13]	EC50, pseudovirus neutralization [14]	EC50, pseudovirus neutralization [15]	IC50 (read off the curve), FRNT, authentic BA.2.12.1 virus [16]
B1	99 ng/mL	60 ng/mL	11 ng/mL	7 ng/mL	31 ng/mL	28 ng/mL	17 ng/mL	~8 ng/mL								
B2									< 0.001 nM	< 0.001 nM	7.8 ng/mL	6 ng/mL	10.5 ng/mL	25.9 ng/mL	15.8 ng/mL	
B3											6.2 ng/mL	3.9 ng/mL	12.6 ng/mL	18.2 ng/mL	11 ng/mL	
B4									< 0.001 nM	47.1 nM	6.4 ng/mL	4.2 ng/mL	7 ng/mL	11.2 ng/mL	9.9 ng/mL	
B5								~50 ng/mL	3.13 nM	3.28 nM	4.5 ng/mL	3.1 ng/mL	79.7 ng/mL	205 ng/mL	191 ng/mL	~500 ng/mL
